Experimental data reported in patent publication US20240376639A1 (ELASMOGEN, published 2024).

Legend:
human DLL4 = target: T1, human DLL4 (human, UniProt Q9NR61 27-524, limits assumed); assay: monoclonal phage ELISA on hDLL4, with HSA as control antigen, OD450
T1 construct: Antigen of the monoclonal phage ELISA; also called hDLL4

Human Serum Albumin = target: T2, Human Serum Albumin (human, UniProt P02768 25-609); assay: monoclonal phage ELISA, HSA as control antigen, OD450
T2 construct: Non-target control antigen in the ELISAs; also called HSA

hDLL4-Fc = hDLL4-Fc (human, UniProt Q9NR61 27-524, limits assumed); assay: direct binding ELISA on 1 µg/mL coated hDLL4-Fc, protein input unquantified, detection with anti-poly-histidine-HRP
Sequence of hDLL4-Fc (Q9NR61 27-524 limits assumed): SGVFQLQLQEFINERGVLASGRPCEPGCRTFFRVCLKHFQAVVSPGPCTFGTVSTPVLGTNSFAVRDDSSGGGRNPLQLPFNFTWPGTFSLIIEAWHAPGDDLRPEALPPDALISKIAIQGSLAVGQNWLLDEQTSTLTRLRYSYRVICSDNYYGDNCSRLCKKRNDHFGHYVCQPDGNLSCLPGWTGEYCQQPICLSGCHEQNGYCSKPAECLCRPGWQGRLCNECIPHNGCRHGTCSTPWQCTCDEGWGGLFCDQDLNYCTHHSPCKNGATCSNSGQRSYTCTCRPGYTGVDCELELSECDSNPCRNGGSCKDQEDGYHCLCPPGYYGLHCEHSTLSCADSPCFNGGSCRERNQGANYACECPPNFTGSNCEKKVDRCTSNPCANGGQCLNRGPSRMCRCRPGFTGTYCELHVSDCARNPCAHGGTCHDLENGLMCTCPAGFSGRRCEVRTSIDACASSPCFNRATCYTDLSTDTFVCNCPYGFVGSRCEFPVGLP

human ROR1 [1] = target: T3, human ROR1 (human, UniProt Q01973 30-403, limits assumed); assay: BIAcore (SPR)
T3 construct: The general ELISA protocol coats hROR1-Fc; also called hROR1; huROR1
T3 sequence (Q01973 30-403 limits assumed): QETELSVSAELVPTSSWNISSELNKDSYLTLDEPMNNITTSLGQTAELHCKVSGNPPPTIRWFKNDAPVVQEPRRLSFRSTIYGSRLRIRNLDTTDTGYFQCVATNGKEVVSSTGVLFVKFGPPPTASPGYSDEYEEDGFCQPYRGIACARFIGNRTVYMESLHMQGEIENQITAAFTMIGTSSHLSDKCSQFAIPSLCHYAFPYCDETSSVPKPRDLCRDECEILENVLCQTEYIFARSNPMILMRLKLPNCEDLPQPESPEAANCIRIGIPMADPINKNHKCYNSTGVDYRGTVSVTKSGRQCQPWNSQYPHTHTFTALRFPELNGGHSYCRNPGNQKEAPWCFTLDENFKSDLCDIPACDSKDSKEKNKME

human ROR1 [2] = target: T3, human ROR1; assay: kinetics against hROR1; method not named in the table (kdis heading as in the BLI table)
human ROR1 [3] = target: T3, human ROR1; assay: BLI against hROR1

T1 sequence (Q9NR61 27-524 limits assumed): as the sequence (Q9NR61 27-524 limits assumed) above

Binder | binding result (human DLL4) | binding result (Human Serum Albumin) | further results
E4V2F3 (VNAR, Clone from the E4-V2 humanised library) VNAR: ASVNQSPSSLSASVGDRVTITCVLTDTNYWYSTSWFRKNPGTTNEDRIIISGRYVESVNNGPKSFTLTISSLQPEDFATYYCRAWTSFEEQVKDVYGGGTKVEIK | binds | no binding | 
78-V3 (VNAR, Humanised VNAR (soloMER), poly-histidine tagged, expressed in E. coli; also called soloMER 78 variant V3) VNAR: TRVDQSPSSLSASVGDRVTITCVLTDTNYSLYATSWYQQKPGKTDWERMSIGGRYVESVNKGAKSFTLTISSLQPEDFATYYCRAVWFPYFISDMWDVYGGGTKVEIK |  |  | binding result (hDLL4-Fc): binds
78-V5 (VNAR, Humanised VNAR (soloMER), poly-histidine tagged, expressed in E. coli; also called soloMER 78 variant V5) VNAR: TRVDQSPSSLSASVGDRVTITCVLTDTNYSLYATSWYQQKPGKTDWERMSIGGRFSGSGSKGAKSFTLTISSLQPEDFATYYCRAVWFPYFISDMWDVYGGGTKVEIK |  |  | binding result (hDLL4-Fc): binds
78-V4 (VNAR, Humanised VNAR (soloMER), poly-histidine tagged, expressed in E. coli; also called soloMER 78 variant V4) VNAR: TRVDQSPSSLSASVGDRVTITCVLTDTNYSLYATSWFRKNPGTTDWERMSIGGRFSGSGSKGAKSFTLTISSLQPEDFATYYCRAVWFPYFISDMWDVYGGGTKVEIK |  |  | binding result (hDLL4-Fc): binds
P3A1 WT dimer HisMyc (other, In the real molecule the two VNAR copies form one polypeptide, joined by an unprinted short peptide linker and carrying a HisMyc tag. They are given here as two separate chains because the linker letters are unknown., VNAR dimer in one chain; also called parental WT clone P3A1; WT non-humanised P3A1 clone; not shown: The short peptide linker joining the two P3A1 copies and the HisMyc tag) VNAR 1: TRVDQTPRTATKETGESLTINCVLTDTSYGLYSTSWFRKNPGTTDWERMSIGGRYVESVNKGAKSFSLRIKDLTVADSATYYCKAREARHPWLRQWYDGAGTVLTVN VNAR 2: TRVDQTPRTATKETGESLTINCVLTDTSYGLYSTSWFRKNPGTTDWERMSIGGRYVESVNKGAKSFSLRIKDLTVADSATYYCKAREARHPWLRQWYDGAGTVLTVN |  |  | Kd (human ROR1 [1]): 0.302 nM
P3A1 V1 dimer HisMyc (other, In the real molecule the two VNAR copies form one polypeptide, joined by an unprinted short peptide linker and carrying a HisMyc tag. They are given here as two separate chains because the linker letters are unknown., 2x P3A1 V1 joined with a short peptide linker, with a HisMyc tag; expressed in bacteria; not shown: The short peptide linker joining the two P3A1 V1 copies and the HisMyc tag) VNAR 1: TRVDQSPSSLSASVGDRVTITCVLTDTSYGLYSTSWFRKNPGTTDWERMSIGGRYVESVNKGAKSFTLTISSLQPEDFATYYCKAREARHPWLRQWYDGAGTKVEIK VNAR 2: TRVDQSPSSLSASVGDRVTITCVLTDTSYGLYSTSWFRKNPGTTDWERMSIGGRYVESVNKGAKSFTLTISSLQPEDFATYYCKAREARHPWLRQWYDGAGTKVEIK |  |  | Kd (human ROR1 [1]): 0.179 nM
78WT (VNAR, Parental non-humanised VNAR 78; also called native (WT) anti-DLL4 VNAR 78) VNAR: TRVDQTPRTATKETGESLTINCVLTDTNYSLYATSWFRKNPGTTDWERMSIGGRYVESVNKGAKSFSLRIKDLTVADSATYICRAVWFPYFISDMWDVYGAGTVLTVN |  |  | binding result (hDLL4-Fc): binds
E4V2Ee8 (VNAR, Clone from the E4-V2 humanised library) VNAR: ASVNQSPSSLSASVGDRVTITCVLTGASYWYSTSWFRKNPGTTDEESMSNGGRYVESVNKRPMSFTLTISSLQPEDFATYYCRAWTSFEEQVKDVYGGGTKVEIK | binds | no binding | 
D3 V2 (VNAR, Humanised VNAR (soloMER)) VNAR: ASVNQSPSSLSASVGDRVTITCVLTDTSYGLYSTSWFRKNPGTTDWERMSIGGRYVESVNKRAKSFTLTISSLQPEDFATYYCKAQSGMAISTGSGHGYNWYDGAGTKVEIK |  |  | Kd (human ROR1 [2]): 15.6 nM; koff (human ROR1 [2]): 0.0238 s⁻¹; kon (human ROR1 [2]): 1.52e+06 M⁻¹ s⁻¹; Kd (human ROR1 [3]): 18.9 nM; kon (human ROR1 [3]): 1.85e+06 M⁻¹ s⁻¹
D3 V4 (VNAR, Humanised VNAR (soloMER)) VNAR: ASVNQSPSSLSASVGDRVTITCVLTDTSYGLYSTSWYQQKPGTTDWERMSIGGRYVESVNKRAKSFTLTISSLQPEDFATYYCKAQSGMAISTGSGHGYNWYDGAGTKVEIK |  |  | Kd (human ROR1 [3]): 58.5 nM; kon (human ROR1 [3]): 1.38e+06 M⁻¹ s⁻¹
D3 V5 (VNAR, Humanised VNAR (soloMER)) VNAR: ASVNQSPSSLSASVGDRVTITCVLTDTSYGLYSTSWYQQKPGTTDWERMSIGGRFSGSGSKRAKSFTLTISSLQPEDFATYYCKAQSGMAISTGSGHGYNWYDGAGTKVEIK |  |  | Kd (human ROR1 [3]): 36.2 nM

Now from value to binder, other results behind:

binding result (human DLL4) | binding result (Human Serum Albumin) | Binder | further results
binds | no binding | E4 WT (VNAR, also called pre-humanised parental clone E4 WT; Wt DLL4 VNAR) VNAR: ASVNQTPRTATKETGESLTINCVLTDTKYLYSTSWFRKNPGTTDWERMSIGGRYVESVNKGAKSFSLRIKDLTVADSATYICRAWTSFEEQVKDVYGAGTVLTVN | binding result (hDLL4-Fc): binds
binds | no binding | E4V2Ee6 (VNAR, Clone from the E4-V2 humanised library) VNAR: ASVNQSPSSLSASVGDRVTITCVLTDTRYLYATSWFRKNPGTTNKESISNGGRYVESVNKRSMSFTLTISSLQPEDFATYYCRAWTSFEEQVKDVYGGGTKVEIK | 
binds | no binding | E4V2Cc9 (VNAR, Clone from the E4-V2 humanised library) VNAR: ASVNQSPSSLSASVGDRVTITCVLTGTEYLYSTSWFRKNPGTPNEDRMINGGRYVESVNKGTMSFTLTISSLQPEDFATYYCRAWTSFEEQVKDVYGGGTKVEIK | 
binds |  | E4V2B9 (VNAR, Clone from the E4-V2 humanised library) VNAR: ASVNQSPSSLSASVGDRVTITCVLTGTGYWYSTSWFRKNPGTSNEDRIIIGGRYVESVNKGTKSFTLTISSLQPEDFATYYCRAWTSFEEQVKDVYGGGTKVEIK | 
binds | no binding | E4V2D10 (VNAR, Clone from the E4-V2 humanised library) VNAR: ASVNQSPSSLSASVGDRVTITCVLTGAGYWFATSWFRKNPGTSDKESISNSGRYVESVNKRSMSFTLTISSLQPEDFATYYCRAWTSFEEQVKDVYGGGTKVEIK | 
binds | no binding | E4V2Cc8 (VNAR, Clone from the E4-V2 humanised library) VNAR: ASVNQSPSSLSASVGDRVTITCVLTSAGYLYATSWFRKNPGTSDKESMIIGRRYVESVNNRSMSFTLTISSLQPEDFATYYCRAWTSFEEQVKDVYGGGTKVEIK | 
binds | no binding | E4V2Gg11 (VNAR, Clone from the E4-V2 humanised library) VNAR: ASVNQSPSSLSASVGDRVTITCVLTGTRYWFSTSWFRKNPGTTDEDSISNGGRYVESVNNGSMSFTLTISSLQPEDFATYYCRAWTSFEEQVKDVYGGGTKVEIK | 
